The source of these data is patent US20240092901A1.

Holding throughout (experiment): ELISA
(ELISA stands for enzyme-linked immunosorbent assay.)

The target of assay [1] is cynomolgus Ror2 (cynomolgus).
Assay [2] deals with human Ror2 (receptor tyrosine kinase-like orphan receptor 2) (human) (UniProt Q01974).
The target of another assay is mouse Ror2 (mouse) (UniProt Q9Z138).
Chain of mouse Ror2 (mouse) (Q9Z138 34-403 limits assumed): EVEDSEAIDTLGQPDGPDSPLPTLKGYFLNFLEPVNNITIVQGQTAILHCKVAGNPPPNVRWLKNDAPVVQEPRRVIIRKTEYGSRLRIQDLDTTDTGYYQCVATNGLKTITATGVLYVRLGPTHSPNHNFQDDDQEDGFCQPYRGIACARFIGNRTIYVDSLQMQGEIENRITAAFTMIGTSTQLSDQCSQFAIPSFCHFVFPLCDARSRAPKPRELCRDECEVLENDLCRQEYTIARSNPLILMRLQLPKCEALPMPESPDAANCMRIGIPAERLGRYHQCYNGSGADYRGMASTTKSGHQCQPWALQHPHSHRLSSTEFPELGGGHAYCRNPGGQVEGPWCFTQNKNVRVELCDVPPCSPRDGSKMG

Chain of human Ror2 (receptor tyrosine kinase-like orphan receptor 2) (human) (Q01974 34-403 limits assumed): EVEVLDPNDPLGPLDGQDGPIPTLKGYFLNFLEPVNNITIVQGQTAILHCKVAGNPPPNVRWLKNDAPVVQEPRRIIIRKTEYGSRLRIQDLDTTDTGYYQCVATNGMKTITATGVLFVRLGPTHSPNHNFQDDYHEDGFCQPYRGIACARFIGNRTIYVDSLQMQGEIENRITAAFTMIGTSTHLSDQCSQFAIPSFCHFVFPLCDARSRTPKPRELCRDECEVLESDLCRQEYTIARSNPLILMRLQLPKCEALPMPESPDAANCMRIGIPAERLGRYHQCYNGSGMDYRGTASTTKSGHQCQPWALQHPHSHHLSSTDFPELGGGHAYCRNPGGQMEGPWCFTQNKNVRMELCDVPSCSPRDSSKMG

B1: conditionally active antibody BAP048 (antibody, from a related filing, V domains shown)
VH: EVQLVQSGAEVKKPGESLRISCKGSGYTFTEYTMHWVRQAPGQGLEWMGGINTNNGGTGYNQKFKGRVTISADKSISTAYLQWSSLKASDTAMYYCAHGSLYSYGNSYFDYWGQGTLVTVSS
VL: AIQLTQSPSSLSASVGDRVTITCSATSSVSYMHWYLQKPGQSPQLLIYGTSNLASGVPDRFSGSGSGTDFTLKISRVEAEDVGVYYCQQRSSYPFTFGQGTKVEIK
In the case of B1, the EC50 (commonly the concentration at which the effect is half-maximal) in assay [1] stood at 0.327 µg/mL; in assay [2], 0.201 µg/mL; in the assay with mouse Ror2 (mouse) it was 7.65 µg/mL.
